Source: patent publication US20120329854A1 (UNIVERSIT TSKLINIKUM FREIBURG, published 2012)

Experiments:
[1] = biological target: Protein-kinase-C-related kinase 1 (PRK1), endogenous in LNCaP cells (human, UniProt Q16512 2-942); assay: Re-ChIP in LNCaP cells, first α-PKCβI then α-PRK1
Protocol: (§1) ChIP and Re-ChIP experiments were performed as described³. LNCaP cells were cultured for 15 min (ChIP) or 210 min (Re-ChIP) in the presence or absence of 1×10⁻⁸M R1881 as indicated. Three days before harvesting, cells were transfected with siRNA (control for PKCβI: 5′-[…]-3′(SEQ ID NO 3); PKCβI: 5′-[…]-3′ (SEQ ID NO 4) (FIG. 3 b, c, f-i); control for PRK1: 5′-[…]-3′ (SEQ ID NO 14); PRK1: 5′-[…]-3′ (SEQ ID NO: 15) (FIG. 3 d, e); Invitrogen) using RNAifect (Qiagen) following the manufacturer's instructions. Immunoprecipitation was performed with specific antibodies (α-AR #06-680 lot 33529 (Upstate Biotechnology), α-H3K4me1 #ab8895 lot 535654, α-H3T6ph #ab14102 lot 481643, α-H3 #ab1791 lot 172452, α-PKCβI S660ph #ab23513 lot 596904 (Abcam), α-PKCβI (C-16) #sc-209 lot 481643, (Santa Cruz), α-H3K4me2 #cs-035-100 lot A391001 (Diagenode), α-PRK1³, and α-LSD1²) on protein A-Sepharose 4B (GE-Healthcare). For PCR, 2 μl out of 50 μl DNA extract was used. PCR primers for FKBP5 (+351/+443), KLK2 (−343/−90), SCN1A, SCN2A, GAPDH, and U6 were described previously^{1, 2, 6, 11}.
It was recently shown by the inventors that PRK1 is a gatekeeper for regulation of AR target gene expression³. PRK1 controls multiple processes during AR-dependent transcription, such as transition from the RNA polymerase II pre-initiation to the initiation complex and demethylation at lysine 9 of histone H3 (H3K9)³. […]

[2] = biological target: LSD1, endogenous in LNCaP cells (human, UniProt O60341 1-852); assay: Re-ChIP in LNCaP cells, first α-PKCβI then α-LSD1, KLK2 and FKBP5 promoters
Protocol: as §1
Therefore, it was investigated whether PKCβI is present at AR target genes and phosphorylates H3T6 in vivo. To analyse first whether PKCβI binds to promoters of AR target genes, LNCaP cells were subjected to chromatin immunoprecipitation (ChIP) in the presence or absence of the AR agonist R1881. […]

Protein-kinase-C-related kinase 1 (PRK1), endogenous in LNCaP cells, sequence (Q16512 2-942 limits assumed): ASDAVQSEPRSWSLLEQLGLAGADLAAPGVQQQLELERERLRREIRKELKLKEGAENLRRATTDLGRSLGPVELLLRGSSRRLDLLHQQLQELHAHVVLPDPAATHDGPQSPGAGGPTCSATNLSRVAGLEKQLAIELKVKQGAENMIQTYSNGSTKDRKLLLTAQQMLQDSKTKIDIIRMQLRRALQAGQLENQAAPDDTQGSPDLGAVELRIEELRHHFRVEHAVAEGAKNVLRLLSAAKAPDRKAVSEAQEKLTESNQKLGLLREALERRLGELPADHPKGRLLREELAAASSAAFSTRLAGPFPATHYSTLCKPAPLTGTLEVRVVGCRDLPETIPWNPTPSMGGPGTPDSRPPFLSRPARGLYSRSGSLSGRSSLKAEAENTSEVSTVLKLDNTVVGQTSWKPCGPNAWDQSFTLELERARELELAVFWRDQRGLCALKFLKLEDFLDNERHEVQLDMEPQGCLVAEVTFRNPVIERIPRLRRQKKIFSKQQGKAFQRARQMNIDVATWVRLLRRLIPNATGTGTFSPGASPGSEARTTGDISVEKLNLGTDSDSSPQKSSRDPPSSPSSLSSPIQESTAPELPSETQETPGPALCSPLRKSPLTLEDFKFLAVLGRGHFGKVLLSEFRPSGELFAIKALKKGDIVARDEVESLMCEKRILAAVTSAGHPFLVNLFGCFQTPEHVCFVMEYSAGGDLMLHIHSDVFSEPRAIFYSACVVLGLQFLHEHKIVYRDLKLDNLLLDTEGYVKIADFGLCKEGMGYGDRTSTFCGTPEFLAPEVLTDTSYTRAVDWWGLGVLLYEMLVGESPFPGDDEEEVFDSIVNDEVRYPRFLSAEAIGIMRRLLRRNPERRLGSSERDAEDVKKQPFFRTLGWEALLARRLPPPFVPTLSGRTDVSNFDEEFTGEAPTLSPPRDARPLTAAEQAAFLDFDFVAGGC

binding result [1]: binds
binding result [2]: binds
B1: protein kinase C beta 1 (PKCβI), endogenous in LNCaP cells (enzyme)
chain: not shown
notes: here the endogenous protein on chromatin of LNCaP human prostate cancer cells; also called protein kinase C βI; PKCβ1
